Measured values: IntAct's records for PubMed 15743816

B1: Serine/threonine-protein kinase STE20 (Saccharomyces cerevisiae), Q03497 (parent)
chain: MSNDPSAVSELPDKDSLDNGISNDNERAMGGNGDGGDGLRLPRTTGTLNVNALQKGTNAAHEAGGYKSMDPAKNAETTNDDDNNVVSLDDPIQFTRVSSSSVISGMSSSMSPHSNIDETKSLEAVTPNINTSNITPDHSADNTFSTINASESDHQFNDTLLSKLSLTDSTETIENNATVKHQQPVASSTVNSNKSSTDIRRATPVSTPVISKPSMTTTPRQINSASHSLSNPKHKQHKPKVKPSKPEAKSKPVSVKKSFPSKNPLKNSSPPKKQTEKSYYSSSSKKRKSGSNSGTLRMKDVFTSFVQNIKRNSQDDKRASSSSNNSSSSSITTALRISTPYNAKHIHHVGVDSKTGEYTGLPEEWEKLLTSSGISKREQQQNMQAVMDIVKFYQDVTETNGEDKMFKTFNTTTGLPGSPQVSTPPANSFNKFPPSTSDSHNYGSRTGTPMSNHVMSPTLNTDSSSANGKFIPSRPAPKPPSSASASAPIIKSPVMNSAANVSPLKQTHAPTTPNRTSPNRSSISRNATLKKEEQPLPPIPPTKSKTSPIISTAHTPQQVAQSPKAPAQETVTTPTSKPAQARSLSKELNEKKREERERRKKQLYAKLNEICSDGDPSTKYANLVKIGQGASGGVYTAYEIGTNVSVAIKQMNLEKQPKKELIINEILVMKGSKHPNIVNFIDSYVLKGDLWVIMEYMEGGSLTDVVTHCILTEGQIGAVCRETLSGLEFLHSKGVLHRDIKSDNILLSMEGDIKLTDFGFCAQINELNLKRTTMVGTPYWMAPEVVSRKEYGPKVDIWSLGIMIIEMIEGEPPYLNETPLRALYLIATNGTPKLKEPENLSSSLKKFLDWCLCVEPEDRASATELLHDEYITEIAEANSSLAPLVKLARLKKVAENMDADEDNDDDNDNEHINKTNNCDDNNDSKETVNLDVTEDDKQK
partner: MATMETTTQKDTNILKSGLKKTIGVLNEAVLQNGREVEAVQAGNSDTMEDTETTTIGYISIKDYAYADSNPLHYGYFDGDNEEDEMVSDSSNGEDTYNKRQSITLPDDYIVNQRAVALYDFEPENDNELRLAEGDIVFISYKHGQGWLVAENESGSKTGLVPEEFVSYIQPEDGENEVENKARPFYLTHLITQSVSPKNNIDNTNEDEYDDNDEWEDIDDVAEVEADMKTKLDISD
B2: Bud emergence protein 1 (Saccharomyces cerevisiae), P29366 (parent)
chain: MLKNFKLSKRDSNGSKGRITSADISTPSHDNGSVIKHIKTVPVRYLSSSSTPVKSQRDSSPKNRHNSKDITSPEKVIKAKYSYQAQTSKELSFMEGEFFYVSGDEKDWYKASNPSTGKEGVVPKTYFEVFDRTKPSSVNGSNSSSRKVTNDSLNMGSLYAIVLYDFKAEKADELTTYVGENLFICAHHNCEWFIAKPIGRLGGPGLVPVGFVSIIDIATGYATGNDVIEDIKSVNLPTVQEWKSNIARYKASNISLGSVEQQQQQSITKPQNKSAKLVDGELLVKASVESFGLEDEKYWFLVCCELSNGKTRQLKRYYQDFYDLQVQLLDAFPAEAGKLRDAGGQWSKRIMPYIPGPVPYVTNSITKKRKEDLNIYVADLVNLPDYISRSEMVHSLFVVLNNGFDREFERDENQNNIKTLQENDTATFATASQTSNFASTNQDNTLTGEDLKLNKKLSDLSLSGSKQAPAQSTSGLKTTKIKFYYKDDIFALMLKGDTTYKELRSKIAPRIDTDNFKLQTKLFDGSGEEIKTDSQVSNIIQAKLKISVHDI
partner: B1 chain
B3: Serine/threonine-protein kinase STE20 (Saccharomyces cerevisiae), Q03497 (parent)
chain: B1 chain
partner: B2 chain

Variants of: B1
Conditions: with nbp2_yeast NBP2, Q12163

| effect of a mutation on the interaction | Variant |
| --- | --- |
| decreasing interaction | P475G;P477A |

Variants of: B2
Conditions: with ste20_yeast STE20, Q03497

| effect of a mutation on the interaction | Variant |
| --- | --- |
| decreasing interaction | W192A |

Variants of: B3
Conditions: with bem1_yeast BEM1, P29366

| Variant | effect of a mutation on the interaction |
| --- | --- |
| F470G | decreasing interaction |
| R474G | decreasing interaction |
| S473A | decreasing interaction |
| P475G;P477A | decreasing interaction |
| P472A | decreasing interaction |
| P475G | decreasing interaction |
| I471G | decreasing interaction |

Results, then the variant that gave them:

| effect of a mutation on the interaction | Variant |
| --- | --- |
| decreasing interaction | P477A |
| decreasing interaction | P480A |
| decreasing interaction | A476G |
| decreasing interaction | P479A |

Variants of: B3
Conditions: with bem1_yeast BEM1, P29366
Remark: another data set of the same source

| effect of a mutation on the interaction | Variant |
| --- | --- |
| decreasing interaction | P475G;P477A |
